These are literature values, as cited in PMC10954796, “Post-translational modifications of beta-amyloid alter its transport in the blood-brain barrier in vitro model” (Frontiers in Molecular Neuroscience, 2024).

“And” between values parts separate entries of the source, which are not always exact repeats. Identical values can stand only once.

In one series the target is Aβ40 1-40 (Homo sapiens) (UniProt P05067).
For series [1], the target named is Aβ42 oligomers 1-42 (Homo sapiens) (UniProt P05067). Kind of series: surface plasmon resonance.
Chain of Aβ42 oligomers 1-42 (Homo sapiens) (P05067 1-42): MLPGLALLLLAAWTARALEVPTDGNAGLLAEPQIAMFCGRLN

Chain of Aβ40 1-40 (Homo sapiens) (P05067 1-40): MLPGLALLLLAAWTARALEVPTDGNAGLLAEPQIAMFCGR

RAGE (from UniProt Q15109): the Kd in the series with Aβ40 1-40 (Homo sapiens) was 75 nM and 57 nM. As to sRAGE (from UniProt Q15109), in series [1], the Kd was 17 nM.
